Experimental data: paper PMC3936014 (Nature communications, 2014)
Read-outs that look alike come from different tables or passages of the source.

Legend:
[1] = biological target: T1, TFAM (43-237) (Homo sapiens, UniProt Q00059 43-237); assay: X-ray crystallography
T1 sequence: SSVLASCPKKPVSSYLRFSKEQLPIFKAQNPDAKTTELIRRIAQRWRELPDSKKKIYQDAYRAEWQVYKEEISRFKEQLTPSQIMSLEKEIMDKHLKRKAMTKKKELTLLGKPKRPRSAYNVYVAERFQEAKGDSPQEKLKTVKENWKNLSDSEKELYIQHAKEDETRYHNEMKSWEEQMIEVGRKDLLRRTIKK

[2] = biological target: T1, TFAM (43-237); assay: X-ray crystallography; remark: listed apart in the source
[3] = biological target: T2, TFAM (mature) (Homo sapiens, UniProt Q00059 43-246); assay: FRET DNA bending
T2 sequence: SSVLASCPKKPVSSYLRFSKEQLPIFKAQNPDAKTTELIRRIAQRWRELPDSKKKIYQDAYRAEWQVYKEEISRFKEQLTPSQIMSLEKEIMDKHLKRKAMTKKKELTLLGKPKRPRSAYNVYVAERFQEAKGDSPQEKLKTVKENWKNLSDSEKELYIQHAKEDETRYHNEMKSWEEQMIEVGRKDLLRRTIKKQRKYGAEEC

[4] = biological target: T1, TFAM (43-237); assay: X-ray crystallography; remark: listed apart in the source
[5] = biological target: the molecule itself; assay: crystal structure

B1: HSP1 22 bp (dsDNA)
DNA 1: GGTTGGTTCGGGGTATGGGGTT
DNA 2: AACCCCATACCCCGAACCAACC
[1]
  binding result: binds

B2: HSP1-Br 22 bp (dsDNA)
DNA 1: GGTTGGTTCGGGGTATGGGGTT
DNA 2: AACCCCATACCCCGAACCAACC
modifications: 5-bromo-dU replacing T at strand 1 position 4 (mtDNA 550)
[2]
  binding result: binds

B3: LSP 28 bp FRET (dsDNA)
DNA 1: TGTTAGTTGGGGGGTGACTGTTAAAAGT
DNA 2: ACTTTTAACAGTCACCCCCCAACTAACA
[3]
  binding result: binds

B4: HSP1 22 bp FRET (dsDNA)
DNA 1: GGTTGGTTCGGGGTATGGGGTT
DNA 2: AACCCCATACCCCGAACCAACC
[3]
  binding result: binds

B5: nonspecific 22 bp (ATPase6) (dsDNA)
DNA 1: ATTCAACCAATAGCCCTGGCCG
DNA 2: CGGCCAGGGCTATTGGTTGAAT
[4]
  binding result: binds

B6: TFAM (transcription factor A, mitochondrial) lacking the last 9 residues (43-237) (domain or fragment, human, UniProt Q00059 43-237, looked up)
chain: T1 sequence
[5]
  binding result: binds

B7: nonspecific 22 bp FRET (dsDNA)
DNA 1: ATTCAACCAATAGCCCTGGCCG
DNA 2: CGGCCAGGGCTATTGGTTGAAT
[3]
  binding result: binds
